The target of assay [1] is T1, neurotensin receptor-1 (human, UniProt P30989 1-418).
T1 construct: whole, on cells; Endogenous receptor on the NTSR1-positive HT-29 human colon cancer cell line; also called NTR1; NTSR1
As to the kind of experiment: competition with 177Lu-N1 on HT-29 cells. As to the method:
(§1) The IC₅₀ for the unlabeled conjugates binding to the neurotensin receptors was determined using the HT-29 human colon cancer cell line. In these studies, ¹⁷⁷Lu-N1 (¹⁷⁷Lu-DOTA-β-Ala-[N-α-Me⁸, Dmt¹¹, Tle¹²]NT(6-13)), which was synthesized according to published methods (Jia, et al. (2015) Nucl. Med. Biol., 42:816), served as the competitive radioligand for comparing the relative binding affinities of the conjugates. […] At the end of the incubation, the cells were centrifuged, aspirated, and washed with fresh medium (5×500 μL). The cell-associated radioactivity was measured using gamma counter and the IC₅₀ values determined by nonlinear regression using GraphPad Prism 5. All measurements were in biological triplicate.

Assay [2] addresses T1, neurotensin receptor-1. Nature of the assay: competitive binding to NTR1. As for the experimental part:
as §1

Square brackets hold non-standard residues; d marks the D form. Ends that are not written are not given here.

T1 sequence (P30989 whole entry): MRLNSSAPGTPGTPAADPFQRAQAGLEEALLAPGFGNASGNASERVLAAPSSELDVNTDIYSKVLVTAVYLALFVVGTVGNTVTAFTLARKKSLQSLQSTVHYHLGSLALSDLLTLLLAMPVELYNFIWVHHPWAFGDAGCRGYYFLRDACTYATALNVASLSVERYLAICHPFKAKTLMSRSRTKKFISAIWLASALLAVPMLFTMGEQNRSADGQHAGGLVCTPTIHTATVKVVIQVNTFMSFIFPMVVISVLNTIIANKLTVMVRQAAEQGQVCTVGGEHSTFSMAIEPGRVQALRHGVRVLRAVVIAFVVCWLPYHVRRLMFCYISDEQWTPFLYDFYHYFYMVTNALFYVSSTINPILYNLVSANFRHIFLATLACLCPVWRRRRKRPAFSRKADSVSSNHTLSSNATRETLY

B1: 3a (peptide)
peptide: KPRRPYIL
modifications: not fully specified; also: N-terminal DOTA, X linker PEG3, Y linker β-Ala, N-Me-Arg, Dmt, Tle building blocks, places not given here
notes: matched control of 2c; also called compound 3a
Usually IC50 stands for the concentration at which inhibition is half-maximal. B1 returned an IC50 in the assay with neurotensin receptor-1 [1] of 49 nM.

B2: 3b (peptide)
peptide: [dS][dS][dS]KPRRPYIL
modifications: not fully specified; also: N-terminal DOTA, X linker Gly-(D)Ser3, N-Me-Arg, Dmt, Tle building blocks, places not given here
notes: matched control of 2f; also called compound 3b
As for B2, the 50% inhibitory concentration (IC50) with neurotensin receptor-1 [1] is 52 nM.

B3: Ec (peptide)
peptide: KPRRPYIL
modifications: not fully specified; also: DOTA on the peptide, linkers and non-natural residues not given here
Molecule B3 showed an IC50 with neurotensin receptor-1 [2] of 63 nM.
